Series [1] concerns the target T1, acetylcholinesterase (AChE) (electric eel, UniProt O42275 24-633). Nature of the series: ELONA; low ionic strength ~0.02 M, no NaCl, 4 mM MgCl2; 8 mM Na2HPO4, 2 mM NaH2PO4, 2.7 mM KCl, 137 mM NaCl, 4 mM MgCl2, pH 7.4, room temperature, 2 h; wells coated with 10 nM AChE, blocked with 1% BSA; washes with 0.05% Tween 20. The note with it: protein: native; label: 5'-biotin, detected by streptavidin-HRP.

Series [2] addresses T1, acetylcholinesterase (AChE). In words: ELONA; selection buffer, ionic strength ~0.15 M, 137 mM NaCl, 4 mM MgCl2; 8 mM Na2HPO4, 2 mM NaH2PO4, 2.7 mM KCl, 137 mM NaCl, 4 mM MgCl2, pH 7.4, room temperature, 2 h; wells coated with 10 nM AChE, blocked with 1% BSA; washes with 0.05% Tween 20. To be noted: protein: native; label: 5'-biotin, detected by streptavidin-HRP.

For one molecule, Kd results are on record in paper PMC6271157, “High Efficiency Acetylcholinesterase Immobilization on DNA Aptamer Modified Surfaces”.

T1 sequence (O42275 24-633): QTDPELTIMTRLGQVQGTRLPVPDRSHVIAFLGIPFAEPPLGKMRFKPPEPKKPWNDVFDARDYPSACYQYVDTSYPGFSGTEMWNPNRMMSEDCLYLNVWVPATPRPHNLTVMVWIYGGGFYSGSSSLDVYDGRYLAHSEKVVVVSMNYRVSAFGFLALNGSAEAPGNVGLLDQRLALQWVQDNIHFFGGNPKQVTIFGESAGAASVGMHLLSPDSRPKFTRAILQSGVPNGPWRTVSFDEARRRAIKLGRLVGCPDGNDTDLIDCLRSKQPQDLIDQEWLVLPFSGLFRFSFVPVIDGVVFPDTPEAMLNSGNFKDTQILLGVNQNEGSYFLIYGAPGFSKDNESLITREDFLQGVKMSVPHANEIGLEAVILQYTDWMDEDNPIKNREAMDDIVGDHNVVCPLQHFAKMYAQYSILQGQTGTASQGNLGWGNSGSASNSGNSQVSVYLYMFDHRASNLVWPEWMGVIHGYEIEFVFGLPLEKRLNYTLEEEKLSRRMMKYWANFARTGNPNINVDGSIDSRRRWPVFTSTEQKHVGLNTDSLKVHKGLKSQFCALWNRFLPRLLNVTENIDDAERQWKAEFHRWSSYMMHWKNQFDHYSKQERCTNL

B1: R15/19 (also R15/C19) (ssDNA)
DNA: AAGCATCCGCTGGTTGACTGTAGCTCTGGCAGACGTAGTGTGAAGGTACCAGCTATTGGGATCTTGGACCCTGCGAA
modifications: 5'-biotin (ELONA)
As for B1, the Kd came to 0.243 ± 0.047 nM in series [1] and 0.157 ± 0.042 nM in series [2].
